# Where a chain is given by its changes, count along the chain named. Where two headings read alike, the source gives them in different places.
# T1: chimera D
# T1 construct: human IL-17RA extracellular domain with mouse Domain D; column head 176-197; also called Construct D
# T1 IL-17RA extracellular domain with FLAG-polyHis tag: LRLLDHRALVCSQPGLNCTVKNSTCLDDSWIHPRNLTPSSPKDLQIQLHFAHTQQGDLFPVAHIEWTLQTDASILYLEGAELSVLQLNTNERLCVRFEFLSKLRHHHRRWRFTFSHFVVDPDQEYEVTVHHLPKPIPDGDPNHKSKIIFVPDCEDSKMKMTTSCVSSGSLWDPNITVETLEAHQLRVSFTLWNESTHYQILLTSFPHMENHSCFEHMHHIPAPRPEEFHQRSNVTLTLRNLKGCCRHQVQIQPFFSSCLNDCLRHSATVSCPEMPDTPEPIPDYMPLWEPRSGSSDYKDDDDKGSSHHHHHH
# B1: AMH15/AML15 (antibody, IgG2, V domains shown)
# VH: QVQLVESGGGVVQPGRSLRLSCAASGFTFSSYGMQWVRQAPGKGLEWVAVIWYDGNKKYYADSVKGRFTISRDNSKNTLYLQMNSLRAEDTAVYYCARGRVRDYYYGMDVWGQGTTVTVSS
# VL: EIVMTQSPATLSVSPGERVTLSCRASQSVSSNLAWFQQKPGQAPRPLIYDASTRAAGIPARFSGSGSGTDFTLTISSLQSEDFAVYYCQQYDNWPLTFGGGTKVEIK
# notes: human mAb from IgG2 XenoMouse mice; tested only as part of a non-clonal hybridoma supernatant; also called AM-15
# B2: AMH16/AML16 (antibody, IgG2, V domains shown)
# VH: QVQLVQSGAEVKKPGASVKVSCKASGYTFTSYGISWVRQAPGQGLEWMGWISAYNGNTKYAQKLQGRVTMTTDTSTSTVYMELRSLRSDDTAVYYCARKQLVFDYWGQGTLVTVSS
# VL: EIVMTQSPATLSVSPGERATLSCRASQSISTSLAWYQQKPGQAPRLLIYGTSTRATGIPARFSGSGSGTEFTLTISSLQSEDFAVYFCQQYDIWPLTFGGGTKVEIK
# notes: human mAb from IgG2 XenoMouse mice; also called AM-16; antibody O
# B3: AMH14/AML14 (antibody, V domains shown)
# VH: B2 VH with S31R, A53T, N55S, K59N, V79A, K99R, V102Y
# VL: B1 VL with V19A, A56T, I58V
# notes: human mAb from IgG2 XenoMouse mice; also called AM-14; antibody K
# B4: AMH26/AML26 (antibody, IgG2, V domains shown)
# VH: QVQLVESGGGLVKPGGSLRLSCAASGFTFSDYYMSWIRQAPGKGLEWVSYISSSGSTIYYADSVKGRFTISRDNAKNSLYLQMNSLRAEDTAVYYCARDRTYYFGSGSYEGMDVWGQGTTVTVSS
# VL: EILMTQSPATLSVSPGERATLSCRASQSVYSNLAWYQQKPGQAPRLLISGASTRATGIPARFSGSGSGTEFTLTISSLQSEDFAVYYCQQYYNWPWTFGQGTKVEIK
# notes: human mAb from IgG2 XenoMouse mice; also called AM-26; antibody P
# Assays:
# [1] = biological target: T2, cynomolgus IL-17RA, on cells (cynomolgus); test: FACS competition: non-clonal supernatant inhibiting biotin-huIL-17A (competitor) binding to cyno IL-17RA+ CHO cells
# T2 construct: whole, on cells; also called CHO-cynoIL-17RA; cyno IL-17RA+ CHO cells
# [2] = biological target: T3, human IL-17RA, full-length, on cells (human, UniProt Q96F46 33-866); test: cell-based or functional assay
# [3] = biological target: T3, human IL-17RA, full-length, on cells; test: cell-based or functional assay; remark: listed apart in the source
# [4] = biological target: human IL-17RA (form used in the low resolution BIAcore not stated) (human, UniProt Q96F46 33-320, limits assumed); test: low resolution BIAcore, subcloned hybridoma
# huIL-17RA-FLAG-polyHis [5] = biological target: T4, huIL-17RA-FLAG-polyHis (human, UniProt Q96F46 33-320); test: binning; IL-17RA held by bead mAb A
# T4 construct: also called IL-17RA-FLAG-pHis; wild-type IL-17RA
# huIL-17RA-FLAG-polyHis [6] = biological target: T4, huIL-17RA-FLAG-polyHis; test: binning; IL-17RA held by bead mAb B
# huIL-17RA-FLAG-polyHis [7] = biological target: T4, huIL-17RA-FLAG-polyHis; test: binning; IL-17RA held by bead mAb C
# huIL-17RA-FLAG-polyHis [8] = biological target: T4, huIL-17RA-FLAG-polyHis; test: binning; IL-17RA held by bead mAb D
# huIL-17RA-FLAG-polyHis [9] = biological target: T4, huIL-17RA-FLAG-polyHis; test: binning; IL-17RA held by bead mAb E
# huIL-17RA-FLAG-polyHis [10] = biological target: T4, huIL-17RA-FLAG-polyHis; test: binning; IL-17RA held by bead mAb F
# huIL-17RA-FLAG-polyHis [11] = biological target: T4, huIL-17RA-FLAG-polyHis; test: binning; IL-17RA held by bead mAb H
# huIL-17RA-FLAG-polyHis [12] = biological target: T4, huIL-17RA-FLAG-polyHis; test: binning; IL-17RA held by bead mAb M
# huIL-17RA-FLAG-polyHis [13] = biological target: T4, huIL-17RA-FLAG-polyHis; test: binning; IL-17RA held by bead mAb P
# huIL-17RA-FLAG-polyHis [14] = biological target: T4, huIL-17RA-FLAG-polyHis; test: binning; IL-17RA held by bead mAb G
# huIL-17RA-FLAG-polyHis [15] = biological target: T4, huIL-17RA-FLAG-polyHis; test: binning; IL-17RA held by bead mAb I
# huIL-17RA-FLAG-polyHis [16] = biological target: T4, huIL-17RA-FLAG-polyHis; test: binning; IL-17RA held by bead mAb J
# huIL-17RA-FLAG-polyHis [17] = biological target: T4, huIL-17RA-FLAG-polyHis; test: binning; IL-17RA held by bead mAb K
# huIL-17RA-FLAG-polyHis [18] = biological target: T4, huIL-17RA-FLAG-polyHis; test: binning; IL-17RA held by bead mAb L
# huIL-17RA-FLAG-polyHis [19] = biological target: T4, huIL-17RA-FLAG-polyHis; test: binning; IL-17RA held by bead mAb N
# huIL-17RA-FLAG-polyHis [20] = biological target: T4, huIL-17RA-FLAG-polyHis; test: binning; IL-17RA held by bead mAb O
# huIL-17RA-FLAG-polyHis [21] = biological target: T4, huIL-17RA-FLAG-polyHis; test: binning; IL-17RA held by bead mAb Q
# huIL-17RA-FLAG-polyHis [22] = biological target: T4, huIL-17RA-FLAG-polyHis; test: binning; IL-17RA held by bead mAb R
# [23] = biological target: T2, cynomolgus IL-17RA, on cells; test: FACS competition: non-clonal supernatant inhibiting biotin-huIL-17A (competitor) binding to cyno IL-17RA+ CHO cells; remark: listed apart in the source
# [24] = biological target: T2, cynomolgus IL-17RA, on cells; test: cell-based or functional assay
# chimera J = biological target: T5, chimera J; test: Bio-Plex titration on His-captured chimera;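 note: binding of anti-IL-17RA antibodies (4-fold titration across about 5 logs, 1 h) to His-captured IL-17RA chimeras on multiplexed beads, MFI read as percent of maximal wild-type human IL-17RA signal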
# T5 construct: human IL-17RA extracellular domain with mouse Domains D and E; column head D+E; also called Construct J
# chimera D = biological target: T1, chimera D; test: Bio-Plex titration on His-captured chimera;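 note: binding of anti-IL-17RA antibodies (4-fold titration across about 5 logs, 1 h) to His-captured IL-17RA chimeras on multiplexed beads, MFI read as percent of maximal wild-type human IL-17RA signal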
binder,measurement,setting,value
B1,MFI,[1],6
B2,"% inhibition of IL-6 Production, IL-17A/HFF bioassay, non-clonal supernatant 1:4",[2],86%
same,"% inhibition of IL-6 Production, IL-17A/HFF bioassay, non-clonal supernatant 1:32",[2],90%
same,"% inhibition of IL-6 Production, IL-17A/HFF bioassay, non-clonal supernatant 1:128",[2],71%
same,"IL-17A/HFF bioassay IC50, subclone 24",[3],1.6 nM
same,"IL-17A/HFF bioassay IC50, subclone 25",[3],2.3 nM
same,"IL-17A/HFF bioassay IC50, subclone 26",[3],1.4 nM
same,Kd,[4],6.2 nM
same,normalized MFI,huIL-17RA-FLAG-polyHis [5],3000
same,normalized MFI,huIL-17RA-FLAG-polyHis [6],630
same,normalized MFI,huIL-17RA-FLAG-polyHis [7],4510
same,normalized MFI,huIL-17RA-FLAG-polyHis [8],1370
same,normalized MFI,huIL-17RA-FLAG-polyHis [9],1260
same,normalized MFI,huIL-17RA-FLAG-polyHis [10],2220
same,normalized MFI,huIL-17RA-FLAG-polyHis [11],120
same,normalized MFI,huIL-17RA-FLAG-polyHis [12],73
same,normalized MFI,huIL-17RA-FLAG-polyHis [13],2540
same,normalized MFI,huIL-17RA-FLAG-polyHis [14],4490
same,normalized MFI,huIL-17RA-FLAG-polyHis [15],10
same,normalized MFI,huIL-17RA-FLAG-polyHis [16],59
same,normalized MFI,huIL-17RA-FLAG-polyHis [17],-111
same,normalized MFI,huIL-17RA-FLAG-polyHis [18],18
same,normalized MFI,huIL-17RA-FLAG-polyHis [19],83
same,normalized MFI,huIL-17RA-FLAG-polyHis [20],139
same,normalized MFI,huIL-17RA-FLAG-polyHis [21],135
same,normalized MFI,huIL-17RA-FLAG-polyHis [22],76
same,MFI,[23],6
B3,"cynomolgous IL-17A-induced IL-6 production from JTC-12 cells, IC50",[24],~1.2 nM
same,MFI,[1],10
B4,EC50,chimera J,0.234 nM
same,EC50,chimera D,0.145 nM

# Reference: US20120251547A1 (Amgen, published 2012)
